Results: article PMC10703350, “Fibril structures of TFG protein mutants validate the identification of TFG as a disease-related amyloid protein by the IMPAcT method” (PNAS Nexus, 2023)

Target: the molecule itself
Experiment: cryo-EM structure; amyloid fibrils of the purified construct (formed at 50 μM in PBS, 37°C, shaking); helical reconstruction in RELION, de novo model of the fibril core

Row | Protein | binding result
1 | TFG low-complexity domain (residues 237-327) with the G269V mutation conjugated to mCherry (domain or fragment, human, UniProt Q92734 237-327, looked up, TRK-fused gene protein (TFG), human, low-complexity domain residues 237-327 with the disease-related (CMT2) mutation G269V; PDB 8TEQ holds only the ordered fibril core (262-290 and 265-290); also called mC-TFG-LCD-G269V; G269V mutant; source: E. coli BL21(DE3) gold, purified (Ni-NTA, size exclusion chromatography), dialyzed into PBS; not shown: mCherry, N-terminal, kept) GQIEGQMYQQYQQQAGYGAQQPQAPPQQPQQYVIQYSASYSQQTGPQQPQQFQGYGQQPTSQAPAPAFSGQPQQLPAQPPQQYQASNYPAQ | binds
2 | TFG low-complexity domain (residues 237-327) with the P285L mutation conjugated to mCherry (domain or fragment, human, UniProt Q92734 237-327, looked up, TRK-fused gene protein (TFG), human, low-complexity domain residues 237-327 with the disease-related (HMSN-P) mutation P285L; PDB 8TER holds only the ordered fibril core (265-299); also called mC-TFG-LCD-P285L; P285L mutant; source: E. coli BL21(DE3) gold, purified (Ni-NTA, size exclusion chromatography), dialyzed into PBS; not shown: mCherry, N-terminal, kept) GQIEGQMYQQYQQQAGYGAQQPQAPPQQPQQYGIQYSASYSQQTGPQQLQQFQGYGQQPTSQAPAPAFSGQPQQLPAQPPQQYQASNYPAQ | binds
